How the values were obtained:
[1] = target: T1, fibrin clots (Homo sapiens, UniProt P02671+P02675+P02679); assay: Stability of fibrin clots with aprotinin covalently bound through FS-anchors; format: biochemical; conditions: aprotinin EDC-coupled to the FS-anchor, clots kept in PBS at 37° C., after 5 days; compared with His-FGF-2 and pep1 anchors
T1 sequence (P02671 36-866 limits assumed): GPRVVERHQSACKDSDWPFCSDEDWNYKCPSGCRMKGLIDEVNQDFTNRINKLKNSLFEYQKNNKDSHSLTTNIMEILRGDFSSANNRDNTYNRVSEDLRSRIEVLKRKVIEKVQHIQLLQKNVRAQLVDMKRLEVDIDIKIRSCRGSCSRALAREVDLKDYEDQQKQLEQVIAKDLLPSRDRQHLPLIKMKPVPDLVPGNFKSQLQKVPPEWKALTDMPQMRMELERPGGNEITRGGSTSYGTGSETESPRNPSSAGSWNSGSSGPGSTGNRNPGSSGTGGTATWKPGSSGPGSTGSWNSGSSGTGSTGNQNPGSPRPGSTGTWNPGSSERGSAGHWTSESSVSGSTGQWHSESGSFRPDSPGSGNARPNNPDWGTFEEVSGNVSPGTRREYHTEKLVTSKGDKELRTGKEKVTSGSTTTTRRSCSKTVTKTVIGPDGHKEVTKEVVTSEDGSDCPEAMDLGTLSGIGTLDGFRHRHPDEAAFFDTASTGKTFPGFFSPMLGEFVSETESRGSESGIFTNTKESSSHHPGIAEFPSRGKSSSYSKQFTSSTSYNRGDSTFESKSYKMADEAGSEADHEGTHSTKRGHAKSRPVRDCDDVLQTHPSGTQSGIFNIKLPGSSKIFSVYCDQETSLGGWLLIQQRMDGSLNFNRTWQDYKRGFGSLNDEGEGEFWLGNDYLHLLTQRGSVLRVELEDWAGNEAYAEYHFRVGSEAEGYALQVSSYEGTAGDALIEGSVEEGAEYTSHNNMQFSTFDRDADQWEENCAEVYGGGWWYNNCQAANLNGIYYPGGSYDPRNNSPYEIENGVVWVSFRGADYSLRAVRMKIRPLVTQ
T1 sequence (P02675 45-491 limits assumed): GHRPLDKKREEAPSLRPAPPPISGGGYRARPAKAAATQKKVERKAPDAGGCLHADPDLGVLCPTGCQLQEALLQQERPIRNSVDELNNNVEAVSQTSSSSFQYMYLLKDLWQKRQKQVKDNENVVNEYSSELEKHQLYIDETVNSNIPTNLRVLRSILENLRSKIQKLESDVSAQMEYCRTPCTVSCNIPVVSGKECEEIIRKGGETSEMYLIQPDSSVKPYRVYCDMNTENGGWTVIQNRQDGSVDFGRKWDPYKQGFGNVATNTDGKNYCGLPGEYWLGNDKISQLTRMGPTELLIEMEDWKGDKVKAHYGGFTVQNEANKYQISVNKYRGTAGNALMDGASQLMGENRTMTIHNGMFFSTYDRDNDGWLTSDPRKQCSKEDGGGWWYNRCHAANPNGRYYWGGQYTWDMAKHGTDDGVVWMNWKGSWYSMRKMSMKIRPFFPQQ
T1 sequence (P02679 27-453): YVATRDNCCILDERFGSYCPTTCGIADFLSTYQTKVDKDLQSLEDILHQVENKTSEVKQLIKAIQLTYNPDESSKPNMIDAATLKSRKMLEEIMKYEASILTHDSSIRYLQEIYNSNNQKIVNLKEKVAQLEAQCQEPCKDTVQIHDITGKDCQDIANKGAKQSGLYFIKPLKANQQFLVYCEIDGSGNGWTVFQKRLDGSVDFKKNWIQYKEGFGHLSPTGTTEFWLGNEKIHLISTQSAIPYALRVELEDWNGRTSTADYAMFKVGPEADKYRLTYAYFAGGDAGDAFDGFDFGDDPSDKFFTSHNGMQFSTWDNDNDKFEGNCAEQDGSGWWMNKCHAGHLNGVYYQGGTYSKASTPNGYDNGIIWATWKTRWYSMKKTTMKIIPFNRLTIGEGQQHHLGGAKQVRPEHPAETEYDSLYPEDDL
From the text: Aprotinin was successfully covalently bound to one FS-anchor (His-FGF-2, pep1 (68 an), pep3 (37 aa) and pep4 (28 aa)) using a standard protocol for 1-ethyl-3-(3-dimethylaminopropyl)carbodiimide) (EDC) coupling (FIG. 8A). For a positive control recombinant human FGF-2 (ProSpec Tany, Israel) and for a negative control phosphate buffered saline (PBS) were used. Covalently linked to a FS-anchor and purified aprotinin was mixed with fibrinogen and finally with thrombin to form fibrin clots. These fibrin clots were kept in PBS at 37° C. to observe stability and degradation of fibrin.

[2] = target: T2, fibrin (Homo sapiens, UniProt P02671+P02675+P02679); assay: Fibrin binding assay by ELISA; conditions: fibrinogen-coated plate incubated with 10 I.U./ml thrombin, various concentrations
T2 construct: an activity for processing fibrinogen to fibrin, preferably a thrombin preparation; purchased Baxter AG, Vienna (Tisseel fibrinogen and Tisseel thrombin)
T2 sequence (P02671 36-866 limits assumed): T1 sequence (P02671 36-866 limits assumed)
T2 sequence (P02675 45-491 limits assumed): T1 sequence (P02675 45-491 limits assumed)
T2 sequence (P02679 27-453): T1 sequence (P02679 27-453)
Procedure: A polystyrene 96-well plate (Nunc® Maxisorp EUSA-plates) was coated with 1 mg/ml fibrinogen (Tisseel®, Baxter AG, Vienna) overnight at 4° C. and then blocked with blocking solution (PBS+1% BSA) for 2 hours at room temperature CRT). After washing three times with PBS, purified peptides were added in various dilutions to the plate and incubated for 1 hour at RT. After the three times washing with PBS, a monoclonal anti-His6-peroxidase antibody (Sigma-Aldrich, Vienna), diluted in PBS+0.1% Tween (Sigma-Aldrich, Vienna) was added and incubated for 1 hour at RT. Finally, the plate was washed three times with PBS again and wells were incubated with o-phenylenediaminehydrochlorid substrate. Absorbance was measured at 492 nm and 620 nm. For fibrin binding analysis, the plate was first coated with fibrinogen overnight at 4° C. and then incubated with 10 I.U./ml thrombin (Tisseel, Baxter AG, Vienna) for 30 minutes at 37° C. The following procedure was the same as described above. […] The signals were detected and recorded at the Reichert SR7000 Surface Plasmon Resonance Analytical Instrument (Reichert Analytical, NY, USA). […]

| stability of fibrin clots [1] | binding affinity to fibrin [2] | Sequence |
| --- | --- | --- |
| higher stability |  | KCVTDECFFFERLESNNYNTYRSRHHHHH (KCVTDECFFFERLESNNYNTYRSRHHHHH; synthetic peptide pep 4 (29 aa), peptide #4, pep4 with C-terminus 5x HIS-tag) |
| higher stability |  | EDGRLLASKCVTDECFFFERLESNNYNTYRSRHHHHH (EDGRLLASKCVTDECFFFERLESNNYNTYRSRHHHHH; synthetic peptide pep 3 (37 aa), peptide #3, pep3 with C-terminus 5x HIS-tag) [also expressed recombinantly] |
|  | little binding affinity | FERLESNNYN TYRSRHHHHH (FERLESNNYNTYRSRHHHHH; synthetic peptide pep 5 (20 aa), peptide #5, pep5 with C-terminus 5x HIS-tag) |
